Series [1] addresses T1, hLE (Homo sapiens, UniProt P08246).
T1 construct: Neutrophils (1.4 billion) were isolated from whole blood obtained from a single healthy laboratory donor; from tissue; host or cells: neutrophils from whole blood of a single healthy donor
T1 sequence (P08246 30-247 limits assumed): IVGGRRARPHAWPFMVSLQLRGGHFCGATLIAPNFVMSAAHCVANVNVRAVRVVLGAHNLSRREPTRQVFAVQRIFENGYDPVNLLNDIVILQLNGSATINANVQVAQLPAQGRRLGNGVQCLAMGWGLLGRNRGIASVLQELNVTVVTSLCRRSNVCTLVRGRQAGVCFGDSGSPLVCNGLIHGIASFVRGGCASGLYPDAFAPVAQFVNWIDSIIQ
The series can be described thus: Resistance to proteolysis by hLE, degradation profile by RP-HPLC. In kind it is in vitro ADME. The note with it: PBS, 37° C., up to 12 hours. As to the method: (§1) (vii) Degradation profiles of peptides by RP-HPLC: Several active peptide inhibitors were dissolved in calcium- and magnesium-free phosphate-buffered saline (PBS), 125 μg /250 μL, mixed with […] of hLE or hCG in 250 μL PBS and incubated at 37° C. Periodically (up to 12 hrs), 100 μL samples were removed from the reaction vessel. The samples were diluted with 150 μL of 0.1% TFA, frozen with liquid nitrogen, and stored at −20° C. prior to HPLC analysis.
(§2) The stability of the peptide bonds in peptide 6 were evaluated by incubating the peptide with hLE and hCG and monitoring degradation profiles of the peptide by reverse-phase HPLC. Briefly, peptide 6 was dissolved in calcium- and magnesium-free phosphate-buffered saline (PBS), 50 μg/250 μL, mixed with 3 μg of hLE or hCG in 250 μL PBS and incubated at 37° C. Periodically, after 1,3,8, and 12 hrs incubation, 100 μL samples were removed from the reaction vessel. The samples were diluted with 150 μL of 0.1% TFA, frozen with liquid nitrogen, and stored at −20° C. prior to HPLC analysis.

In series [2] the target is T2, human leukocyte elastase (hLE) (Homo sapiens, UniProt P08246).
T2 construct: Neutrophils (1.4 billion) were isolated from whole blood obtained from a single healthy laboratory donor; from tissue; host or cells: neutrophils from whole blood of a single healthy donor
T2 sequence (P08246 30-247 limits assumed): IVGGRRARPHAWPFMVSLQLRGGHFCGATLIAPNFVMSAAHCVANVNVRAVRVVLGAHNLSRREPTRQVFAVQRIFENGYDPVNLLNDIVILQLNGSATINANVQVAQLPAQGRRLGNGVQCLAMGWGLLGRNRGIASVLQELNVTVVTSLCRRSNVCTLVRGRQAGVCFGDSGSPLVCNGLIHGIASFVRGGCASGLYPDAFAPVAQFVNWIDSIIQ
The series can be described thus: In vitro inhibition of hLE (cleavage of MeOSuc-AAPV-NA). Type of series: biochemical.

Series [3] addresses T3, human leukocyte cathepsin G (hCG) (Homo sapiens, UniProt P08311).
T3 construct: Neutrophils (1.4 billion) were isolated from whole blood obtained from a single healthy laboratory donor; from tissue; host or cells: neutrophils from whole blood of a single healthy donor
T3 sequence (P08311 21-243 limits assumed): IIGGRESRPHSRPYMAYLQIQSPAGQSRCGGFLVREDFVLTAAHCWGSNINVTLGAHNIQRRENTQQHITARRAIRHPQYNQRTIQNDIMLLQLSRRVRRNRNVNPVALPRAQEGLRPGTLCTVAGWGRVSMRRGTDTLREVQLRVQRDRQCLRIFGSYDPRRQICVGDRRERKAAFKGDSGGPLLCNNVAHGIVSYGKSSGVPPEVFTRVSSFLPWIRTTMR
The series is described as follows: In vitro inhibition of hCG (cleavage of Suc-AAPF-NA). In kind it is biochemical. In short, it runs like this: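 Purified hCG (1.2 μg, about 40 picomol) incubated with 600 μM Suc-AAPF-NA and CRP-derived peptides at 1–100 μM in 100 mM Hepes pH 7.4, 0.05% Brij-35, 5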

In another series the target is T4, hCG (Homo sapiens, UniProt P08311).
T4 construct: Neutrophils (1.4 billion) were isolated from whole blood obtained from a single healthy laboratory donor; from tissue; host or cells: neutrophils from whole blood of a single healthy donor
T4 sequence (P08311 21-243 limits assumed): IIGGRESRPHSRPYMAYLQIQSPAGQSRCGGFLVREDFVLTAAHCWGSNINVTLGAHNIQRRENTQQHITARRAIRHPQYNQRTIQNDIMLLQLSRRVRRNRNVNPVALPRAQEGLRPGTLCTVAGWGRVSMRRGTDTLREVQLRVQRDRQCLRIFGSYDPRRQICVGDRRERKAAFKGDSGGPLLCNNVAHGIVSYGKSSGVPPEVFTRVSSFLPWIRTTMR
The series is described as follows: Resistance to proteolysis by hCG, degradation profile by RP-HPLC. In kind it is in vitro ADME. The note with it: PBS, 37° C., up to 12 hours. As to the method:
as §1, §2

In series [4] the target is T5, hLE (Homo sapiens, UniProt P08246).
T5 sequence (P08246 30-267): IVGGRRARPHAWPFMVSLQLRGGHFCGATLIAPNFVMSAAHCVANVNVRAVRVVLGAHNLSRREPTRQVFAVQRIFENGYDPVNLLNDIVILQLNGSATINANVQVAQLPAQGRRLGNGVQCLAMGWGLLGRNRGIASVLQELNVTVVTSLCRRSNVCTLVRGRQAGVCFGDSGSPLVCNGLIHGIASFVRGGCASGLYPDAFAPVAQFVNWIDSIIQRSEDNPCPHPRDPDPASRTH
To be noted: CRP as a whole protein; cited from earlier work.

The target in series [5] is specific receptors on monocytes. To be noted: in vitro; read-out: Kd, binding to receptors on monocytes; cited from earlier work.
For series [6], the system named is specific receptors on human neutrophils. To be noted: in vitro; read-out: Kd, binding to receptors on human neutrophils; cited from earlier work.
In series [7] the target is T6, human leukocyte elastase (human, UniProt P08246 30-267).
T6 construct: mature; Active enzyme purified from human neutrophils; also called hLE
T6 sequence (looked up): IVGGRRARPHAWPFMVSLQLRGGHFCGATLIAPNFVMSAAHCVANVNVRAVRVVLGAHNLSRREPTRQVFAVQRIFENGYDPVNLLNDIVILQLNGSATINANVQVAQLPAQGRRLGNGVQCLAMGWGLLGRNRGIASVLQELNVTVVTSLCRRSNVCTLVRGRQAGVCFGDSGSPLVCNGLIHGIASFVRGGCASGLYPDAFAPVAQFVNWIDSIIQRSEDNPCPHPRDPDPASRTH
The series is described as follows: hLE enzyme inhibition kinetics, cleavage of MeOSuc-AAPV-NA. As to the method:
(§3) (v) Inhibition experiments with hLE: Peptides were dissolved in 100 mM Hepes buffer pH 7.4 containing 0.1% Brij-35 with 10%. DMSO to yield 300 µM solutions, which were used to make further dilutions with the same buffer, and 80 µL aliquots were added in duplicates to 96-well plates. The substrate, 600 µM MeOSuc-AAPV-NA in the same buffer with 5% DMSO, was added to each well in addition to the blank wells, and the plate was placed in the plate reader equilibrated to 37 C (Dynateck MR-6000). Lyophilized aliquots of hLE were dissolved in 1600 µL of 100 mM Hepes buffer without DMSO, and 80 µL of the enzyme solution was added to the peptides and substrate to initiate the reaction. The kinetics program read the plate at 405 nm every 2 min for 20 min (with a 3 sec shaking period between readings), and plotted the results as well as the average of each duplicate. The final volume was 240 µL containing: 5% DMSO, 1–100 µM of peptide, 200 µM substrate, and 0.75 µg (~25 picomol) enzyme.
(§4) The hLE inhibitory capability of CRP-derived peptides was evaluated by inhibiting the enzymatic cleavage of MeOSuc-AAPV-NA as described in Materials and Methods (section v).

For series [8], the target named is T7, human leukocyte cathepsin G (human, UniProt P08311 21-244).
T7 construct: mature; Active enzyme purified from human neutrophils; also called hCG; human Cathepsin G
T7 sequence (looked up): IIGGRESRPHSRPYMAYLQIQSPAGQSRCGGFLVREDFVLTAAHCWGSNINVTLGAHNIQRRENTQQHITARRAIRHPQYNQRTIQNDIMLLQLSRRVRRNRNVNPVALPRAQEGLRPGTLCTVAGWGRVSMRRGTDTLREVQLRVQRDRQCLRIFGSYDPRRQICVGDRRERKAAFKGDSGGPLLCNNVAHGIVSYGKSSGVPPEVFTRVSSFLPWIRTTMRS
The series can be described thus: hCG enzyme inhibition kinetics, cleavage of Suc-AAPF-NA. As to the method:
as §3
(§5) vi) Inhibition experiments with hCG: Similar conditions to hLE inhibition experiments were used except the substrate: 80 µL of 1.80 mM Suc-AAPF-NA. The enzyme was dissolved in 800 µL buffer, and the reaction was monitored every 6 min for 1 hour. The final volume was 240 µL containing: 5% DMSO, 1–100 µM peptide, 600 µM substrate, and 1.2 µg enzyme (about 40 picomol).

Series [9] deals with T6, human leukocyte elastase. The series can be described thus: hLE enzyme inhibition kinetics, cleavage of MeOSuc-AAPV-NA. As to the method: as §3, §4
This is another data set of the same source.

Series [10] concerns the target T7, human leukocyte cathepsin G. The series is described as follows: hCG enzyme inhibition kinetics, cleavage of Suc-AAPF-NA. As to the method: as §3, §5
The source holds these as a separate data set.

[11] abbreviates: peptide concentrations above 50 μM.

Where two headings read alike, the source gives them in different places. Where a SMILES comes first, the peptide text is derived from it.

The text below walks through data of patent publication US6528618B1, “Anti-inflammatory peptides derived from C-reactive protein” (Yeda Research and Development Co. Ltd., priority 1997, dated 2003).

By Ki is commonly meant a measure of affinity in units of concentration, obtained from inhibition or displacement. In general, Kd refers to the equilibrium constant for the complex coming apart.

As for `CC[C@H](C)[C@H](NC(=O)[C@H](CC(=O)O)NC(=O)[C@H](CCCCN)NC(=O)[C@H](CO)NC(=O)[C@H](Cc1c[nH]c2ccccc12)NC(=O)[C@H](Cc1ccccc1)NC(=O)[C@@H](NC(=O)[C@H](CC(C)C)NC(=O)[C@@H](NC(=O)[C@@H](N)CCC(=O)O)[C@@H](C)CC)[C@@H](C)CC)C(=O)NCC(=O)N[C@@H](Cc1ccc(O)cc1)C(=O)N[C@@H](CO)C(=O)N[C@@H](Cc1ccccc1)C(=O)N[C@H](C(=O)O)[C@@H](C)O` [Peptide 6, Glu-Ile-Leu-Ile-Phe-Trp-Ser-Lys-Asp-Ile-Gly-Tyr-Ser-Phe-Thr] (H-EILIFWSKDIGYSFT-OH; N-terminus and C-terminus assumed), on hLE [1], the “cleavage products after incubation with hLE” value is “no cleavage products were observed”. Moreover, in series [2], the “hLE inhibitory activity (in words)” value is listed as “submicromolar concentrations”. Further, the Ki in series [2] (hLE Ki [μM], Table 1, substrate MeOSuc-AAPV-NA 200 μM, pH 7.4, 37 C) came out at 0.18 ± 0.03 µM; in [3] (hCG Ki [μM], Table 1, substrate Suc-AAPF-NA 600 μM, pH 7.4), 0.25 ± 0.05 µM. The “hLE inhibition at concentrations above 50 μM” value in [2] (setting [11]) is recorded as “Total inhibition”. Moreover, the “hCG inhibitory activity (in words)” value in [3] is given as “submicromolar concentrations”. Further, in series [3] (setting [11]), the “hCG inhibition at concentrations above 50 μM” value is “total inhibition”. Moreover, at hCG, the “cleavage products after incubation with hCG” value is on record as “no cleavage products were observed”.

B1: CRP: plasma protein classified as a major acute phase reactant; five identical sub-units of 206 amino acids (pentraxin) (protein, listed as Homo sapiens)
chain: ETDMSRKAFVFPKESDTSYVSLKAPLTKPLKAFTVCLHFYTELSSTRGYSIFSYATKRQDNEILIFWSKDIGYSFTVGGSEILFEVPEVTVAPVHICTSWESASGIVEFWVDGKPRVRKSLKKGYTVGAEASIILGQEQDSFGGNFEGSQSLVGDIGNVNMWDFVLSPDEINTIYLGGPFSPNVLNWRALKYEVQGEVFTKPQLWP
modifications: pentamer
Turning to B1, the “inhibitory effect of whole CRP on hLE” value in the series with hLE [4] is “no inhibitory effect”. Moreover, the Kd in series [5] is about 0.1 µM; in series [6], about 0.05 µM.
On to KRQDNEILIFWSKDI (Synthetic 15-mer) [peptide 5 (CRP57-71)], for which the results for the inhibition constant (Ki) (with human leukocyte elastase [7]; in [8]) were 85 µM and 180 µM, respectively.
Consider ILFEVPEVTVAPVHI (Synthetic 15-mer) [peptide 10 (CRP82-96)], for which the inhibition constant Ki with human leukocyte elastase [7] is 55 µM; in series [8], 150 µM.
Take EILIFWSKDI (Synthetic; also called pep14) [peptide 14 (CRP62-71)]: the Ki with human leukocyte elastase [9] was determined as 6.7 µM; in series [10], 6 µM.
Consider ILIFWSKDIGYSFT (Synthetic) [peptide 11 (CRP63-76)], for which the “fold decrease in hLE inhibition against peptide 6” value with human leukocyte elastase [7] is about 20 fold. Further, the Ki with human leukocyte elastase [9] was determined as 4.5 µM; in series [10] it was 15 µM.

B2: peptide 18 (peptide)
peptide: DILIFWSKDIGYSFT
notes: Analog of peptide 6 (CRP62-76) with Glu62 replaced by Asp; also called pep18
Take B2: in the series with human leukocyte elastase [7], the “fold lower inhibitory activity against peptide 6” value was found to be 10 fold. The Ki worked out at 2.2 µM with human leukocyte elastase [9] and 2.6 µM in series [10].

B3: peptide 19 (peptide)
peptide: EILIFWPKDIGYSFT
notes: Analog of peptide 6 (CRP62-76) with Ser68 replaced by Pro
In [10], B3 registered an inhibition constant Ki of 30 µM.
EILIFWSKDIGY (Synthetic; also called pep13) [peptide 13 (CRP62-73)]: the values for the Ki (with human leukocyte elastase [9]; in series [10]) were 1.1 µM and 4 µM, respectively.
